Assay results: patent US20140128578A1

What was measured:
[1] = biological target: antibody in cell-free culture supernatant (Experiment 3); assay: affinity precipitation from cell-free culture supernatant; antibody to Z-dimer 1:2, 1 h; precipitate collected on a 0.22 µm filter
[2] = biological target: IgG1 contained in cell-free eukaryotic culture supernatant (Experiment 1, test 2); assay: affinity precipitation; 16.25 nmol Z-dimer with 16.25 nmol IgG1 in culture supernatant, 2 h; antibody left in supernatant measured by SEC UV signal and protein A chromatography
[3] = biological target: IgG4 contained in cell-free eukaryotic culture supernatant (Experiment 1, test 1); assay: affinity precipitation; 0.13 µmol Z-dimer with 0.065 µmol IgG4 in culture supernatant, 2 h; antibody left in supernatant measured by SEC UV signal and protein A chromatography

Z-dimer (dimerised protein Z; two Z-domain Cys tag monomers linked via a disulphide bridge) (designed binder)
total yield of the antibody after the precipitation [1]: 98%
percent of antibody precipitated [2]: 76%
percent of antibody precipitated [3]: 99%
